From patent US20040213780, “Methods and compositions for treating polyglutamine expansion-associated disease” (published 2004) come the findings set out here.

This data set addresses Sp1 (UniProt P08047 P08047:2-785). Nature of the data set: EMSA; 5 mM DTT, 1 ug/ml poly(dI-dC); binding reduced 20% by GST-huntingtin Q20 and 70% by Q51; competed by 50-fold unlabelled probe. Conditions: tags: purified Sp1, Promega; label: labeled (autoradiography). The method, then: Chem. 273:26218, 1998) except that 5 mM DTT and 1 μg/ml poly(dI-dC) were used. GST-huntingtin fusions (0.2 μg/ul) were a gift of E. Wanker and were purified as described (J. S. Steffan et al., Nature 413:739, 2001). An approximate 1:1 ratio of purified proteins was used. Coomassie blue staining and Western blotting were used to examine the purified proteins.
Binding of Sp1 to a labeled consensus Sp1 site is shown in lane 1, and competition with a 50-fold molar excess of unlabelled probe is shown in lane 2 (plus sign). Incubation of Sp1 in the presence of GST-huntingtin with 20 glutamines (Qs) led to a 20% reduction in Sp1 binding (lane 3), whereas huntingtin with 51 Qs inhibited Sp1 binding by 70% (lane 4). The Sp1/DNA complex was identified with anti-Sp1 and is indicated by an arrow in all panels. […] Primary striatal cells were transfected with wild-type (HttQ 17) or mutant (HttQ75) huntingtin. EMSA was performed with a labeled D2 promoter fragment containing a Sp1 binding site. […] In competition experiments, a 100-fold molar excess of double-stranded nonradioactive oligonucleotide was used (lanes 2 and 4). […] EMSA was performed with nuclear extracts isolated from presymptomatic grade 1 and grade 4 HD brain tissue as described above herein. […] Competition experiments were performed as in (FIG. 2B) (lane 2). […] EMSA was performed as in FIG. 2C. […]
A general note: Mobility shift assays separate free from complexed probe on a gel.

Sp1, sequence (P08047 2-785, one chain of several): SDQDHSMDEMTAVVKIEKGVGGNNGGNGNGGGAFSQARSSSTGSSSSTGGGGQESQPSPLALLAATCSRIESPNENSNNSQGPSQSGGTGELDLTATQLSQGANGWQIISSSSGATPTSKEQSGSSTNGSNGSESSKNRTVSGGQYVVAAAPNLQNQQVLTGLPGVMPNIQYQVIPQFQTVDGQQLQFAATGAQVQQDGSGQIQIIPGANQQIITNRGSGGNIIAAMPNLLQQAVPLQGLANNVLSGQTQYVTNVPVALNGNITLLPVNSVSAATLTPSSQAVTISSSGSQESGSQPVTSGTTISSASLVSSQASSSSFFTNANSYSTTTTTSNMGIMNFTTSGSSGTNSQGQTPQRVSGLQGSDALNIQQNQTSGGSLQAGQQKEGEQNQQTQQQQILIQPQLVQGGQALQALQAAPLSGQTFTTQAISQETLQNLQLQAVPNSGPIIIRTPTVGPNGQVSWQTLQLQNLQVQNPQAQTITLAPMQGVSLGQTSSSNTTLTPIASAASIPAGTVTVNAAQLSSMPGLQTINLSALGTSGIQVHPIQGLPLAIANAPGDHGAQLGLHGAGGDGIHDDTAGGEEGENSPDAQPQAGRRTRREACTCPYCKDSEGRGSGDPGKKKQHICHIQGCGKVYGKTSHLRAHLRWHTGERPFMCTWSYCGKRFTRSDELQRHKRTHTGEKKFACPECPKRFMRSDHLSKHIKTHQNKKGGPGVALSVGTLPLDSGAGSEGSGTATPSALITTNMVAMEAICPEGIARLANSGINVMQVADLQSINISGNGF

B1: Sp1 consensus site probe (dsDNA)
DNA 1: ATTCGATCGGGGCGGGGCGAGC
DNA 2: GCTCGCCCCGCCCCGATCGAAT
Turning to B1, the binding result is reported as “binds”.
